Measured values taken from patent publication US12551573B2, “Compositions and methods for the targeting of PCSK9” (Scribe Therapeutics Inc., priority 2022, dated 2026).
Substitutions are numbered along the chain they refer to.

B1: DOMAIN_17801 (protein, listed as Pongo sp.)
chain: EPGAVSFADVAVYFCREEWGCLRPAQRALYRDVMRETYGHLSALGIGGNKPALISWVEEEAELWDPAAQDPEVAKCQTEAD
B2: DOMAIN_17534 (protein)
chain: SQGSVSFKDVTVDFTQEEWQQLDPAQKALYRDVMLENYCHFVSVGFHMTKPDMIRKLEQGEELWTQRIFPSYSYLAEDGKT
modifications: Cercocebus atys
B3: DOMAIN_18979 (protein, listed as Pongo sp.)
chain: CYQDSVTFDDVAVDFTQEEWTLLDSTQRSLYSDVMLENYKNLATVGGQIIKPSLISWLEQEESKTVQGGVLQGRKTQWRGT
B4: DOMAIN_17180 (protein, listed as Zalophus californianus)
chain: FQDSVTFEDVAVRFSSGEWQCLTRAQRHLYADVMLENYGNMISVGFAVPKPPLISHLEQGAEPCVQDLQDGGFLSCSFPVS
B5: DOMAIN_17264 (protein)
chain: CEVSVSFEDVTVDFSREEWQHLDPAQRRLYRDVTLENYSHLCSVGYQVPKPEVIFKLEQGEGPWTLEEETPHQSCSDEDMG
modifications: Vicugna pacos
B6: DOMAIN_18670 (protein, listed as Neomonachus schauinslandi)
chain: B5 chain with C1L, E2Q, C42H, E68G, S74G, D79A, M80I
B7: DOMAIN_18923 (protein, listed as Callithrix jacchus)
chain: ASGTLTFDDVALYFSEQEWEILEKWQKQMYKQEMKTNYETLDSLGYAFSKPDLITWMEKGRMLLISDQGRLHKTKRTAGPP
B8: DOMAIN_18693 (protein, listed as Camelus dromedarius)
chain: GQESVSFKDVTVDFTWDEWLQLTGMQRTLYRDVMLENYSHLVSVGCCITKPEVIFKLEQGEEPWPREGELPGRRDPDRSQE
B9: DOMAIN_19388 (protein, listed as Physeter macrocephalus)
chain: MTFEDVAVEFTRWEWGQLDPTQKDVYREVMLENFKNLASLGFPMSKPYVICRLEEGEEPCILEREISTGAPADWERRRQAK
B10: DOMAIN_18726 (protein, listed as Myotis davidii)
chain: PNALVTFQDVFVDFSPEELASLSAAQRRLHREVTLENYRNLVSLGYQFPRPDIITQLEEEESSAMEEDSNTKTGPDWETGP
B11: DOMAIN_18459 (protein, listed as Monodelphis domestica)
chain: GQEEVAFKDVAVDFTREEWRLLSPPQKELYKEVMLENIRNLLSVGLPAPPEDMISYLEQREAPWMLEQEGLRSYSPGEEIR
B12: DOMAIN_17548 (protein, listed as Neomonachus schauinslandi)
chain: VQGSMSFEDVIVEFTQDEWQYMSPAQRILYRDVMLENYSHLISVGYCTTKPEMIFKLEQGEEPWSLEEEFLNQRYPGYFSV
B13: DOMAIN_17775 (protein, listed as Camelus dromedarius)
chain: MPQGSVSFKDVTVDFTQEEWQQLDSAQKALYRDVMLENYCHFVSVGFHMTKPDMIHKLEQGKELWTTGRIFPSRSYLGESV
B14: DOMAIN_18646 (protein, listed as Monodelphis domestica)
chain: VKEVVTLQDVAVDFTWEEWRLLSPPQKELYREVMLENAQNLLSVGLPAPLEDVLSYLEQRKGPWMLEQKRLRSCCPGEIRL
B15: DOMAIN_17497 (protein, listed as Monodelphis domestica)
chain: AQEVVSFKDVAVDFTREEWRLLSPPQKELYKEVMLENARNLLSVGLPAPSEEVISYLEQREAPWILEQEGLRNCCSEGEIR
B16: DOMAIN_17474 (protein, listed as Monodelphis domestica)
chain: QVPVTFEDLAVRFSAEEWHLLEEWQREFHRDVMRENYEMLVSLGTAQLLPLSAFLSLTEPQEDMGDNGCSDGEWERPGGGL
B17: DOMAIN_17689 (protein)
chain: MAFEDVAVYFSQEEWGLLDTAQRALYRRVMLENFTLVTSLGLSTSRPHVVIQLERGEEPWVPSGKDMTLARNTYRRLNAGE
modifications: Cercocebus atys
B18: DOMAIN_17234 (protein)
chain: PENGVTFEDIALYFSWEEWKLLDEAQRRLYHDVMLENFALISSLGVWSGEENVEASFEQSVSVVMSQVRTSKEPSSSQKTH
modifications: Delphinapterus leucas
B19: DOMAIN_20025 (protein, listed as Carlito syrichta)
chain: LQGSVSFKDVTVDFTQEEWHQLNPAQKALYRDVMLENYCHFISVGFHMTKPDMIRKLEQGEELWTERIFSRQSHLEEDGKA
B20: DOMAIN_19699 (protein, listed as Otolemur garnettii)
chain: B19 chain with H20Q, N23D, I42V, K56R, S70P, R71G, H74Y
B21: DOMAIN_19563 (protein, listed as Papio anubis)
chain: AQMLVTFKDVAVTFTQEEWRQLDLTQRTLYREVMLETCGLLVSLGHRVPKPELVHLLEHGQELWTVKRGLSDPTCAGDRTQ
B22: DOMAIN_21095 (protein, listed as Trichechus manatus)
chain: LKASVSFKDVAVELTQEEWQHMGPAQRTLYRDVMLENYSHLVSVGYCIFKPEVIFKLEQGEQPWFLEQEFSNQSYPEDYNI
B23: DOMAIN_20336 (protein, listed as Panthera pardus)
chain: SQGTVSFKDVAVNFTQEEWQYLDLPQRDLYKDVMLENYTNLISVGYQTTKPSVIHKLEQGEEPWMVEREIPNWSYAEETWQ
B24: DOMAIN_92 (protein, listed as Pan paniscus)
chain: FGNLLGVPWAQGNSALPEGLLSFKDISMEFTWDEWQLLDSTQKYLYRDVILENYHNLISVGYHGTKPDLIFKLEQGEDPWI
B25: DOMAIN_31643 (protein, listed as Micrurus lemniscatus)
chain: FREVSVYFSEEEWSWLDPDQKALYWEVMLENHRNMASLGDDGQENKDSYELLQGITARDTMETSAIEMEVERYKEKQSDDWNQESSSCTDDSV
B26: DOMAIN_143 (protein, listed as Pan paniscus)
chain: MAAMPLKAQYQEMVTFEDVAVHFTKTEWTGLSPAQRALYRSVMLENFGNLTALGYPVPKPALISLLEGGDMAWGLEAQDDP

Tested on: HBEGF locus
Format: cell-based, human
Conditions: high-throughput screen of dXR repression of the HBEGF gene; abundance of each domain in the library before and after diphtheria toxin selection; HEK293T cells

Point of comparison: B17, “Log2 (fold change)” value 3.6469. Against it:
- B1 — lower, 2.9733
- B2 — lower, 2.9374
- B3 — lower, 2.0034
- B4 — lower, 2.945
- B5 — lower, 3.0866
- B6 — lower, 3.1792
- B7 — lower, 2.2053
- B8 — lower, 3.0179
- B9 — lower, 3.2831
- B10 — lower, 2.9362
- B11 — lower, 3.1352
- B12 — lower, 2.8002
- B13 — lower, 2.6595
- B14 — lower, 2.4678
- B15 — lower, 2.8088
- B16 — lower, 2.683
- B18 — lower, 2.0152

Same assay, conditions: high-throughput screen of dXR repression of the HBEGF gene; abundance of each domain in the library before vs after diphtheria toxin selection; listed domains met p-value <0.01 and log2(fold change) >2

Point of comparison: B23, “Log2 (fold change)” value 2.3293. Against it:
- B19 — within 0.2 log units, 2.2451
- B20 — higher, 2.8474
- B21 — higher, 2.5522
- B22 — within 0.2 log units, 2.5003

Same assay, conditions: high-throughput screen of dXR repression of the HBEGF gene; change in abundance of each domain in the library before and after diphtheria toxin selection

Point of comparison: B26, “Log2 (fold change)” value 3.63. Against it:
- B24 — lower, 2.1475
- B25 — higher, 3.8782
